Test results from PMC8239462, “Molecular chaperone RAP interacts with LRP1 in a dynamic bivalent mode and enhances folding of ligand-binding regions of other LDLR family receptors” (The Journal of Biological Chemistry, 2021).
“And” between values parts separate entries of the source, which are not always exact repeats. Equal values may be shown once.

B1: RAP (commercial; R&D, 4296-LR) (natural protein, human)
chain: YSREKNQPKPSPKRESGEEFRMEKLNQLWEKAQRLHLPPVRLAELHADLKIQERDELAWKKLKLDGLDEDGEKEARLIRNLNVILAKYGLDGKKDARQVTSNSLSGTQEDGLDDPRLEKLWHKAKTSGKFSGEELDKLWREFLHHKEKVHEYNVLLETLSRTEEIHENVISPSDLSDIKGSVLHSRHTELKEKLRSINQGLDRLRRVSHQGYSTEAEFEEPRVIDLWDLAQSANLTDKELEAFREELKHFEAKIEKHNHYQKQLEIAHEKLRHAESVGDGERVSRSREKHALLEGRTKELGYTVKKHLQDLSGRISRARHNEL
notes: RAP (LDL-receptor related protein-associated protein), commercial preparation; also called receptor-associated protein; LDL-receptor related protein-associated protein; source: bought: R&D (4296-LR)

Tests used:
Conditions in all cases: both partners purified
[1] = target: B1; assay: SPR; Biacore T200; receptor fragment expressed WITHOUT RAP (RAP−), monomer, amine-coupled to CM5 at ~250 RU; RAP (0.08–20 nM), FVIII (0.8–200 nM) or ApoE3 (0.78–200 nM) in flow, 30 ul/min, contact 180 s; HBS-P Ca2+ pH 7.4 (10 mM HEPES, 150 mM NaCl, 5 mM CaCl2, 0.005% Tween-20); KD from the steady-state affinity model
[2] = target: B1; assay: SPR; Biacore T200; receptor fragment COEXPRESSED with RAP (RAP+; for the LRP1 clusters RAP without HTEL; RAP washed off during purification), monomer, amine-coupled to CM5 at ~250 RU; RAP (0.08–20 nM), FVIII (0.8–200 nM) or ApoE3 (0.78–200 nM) in flow, 30 ul/min, contact 180 s; HBS-P Ca2+ pH 7.4; KD from the steady-state affinity model
[3] = target: T1, recombinant Factor VIII (Advate) (UniProt P00451 20-2351); assay: SPR; Biacore T200; LRP1 cluster II coexpressed with RAP having the HTEL signal (RAP-HTEL+), monomer, amine-coupled to CM5 at ~250 RU; RAP (0.08–20 nM) or FVIII (0.8–200 nM) in flow; HBS-P Ca2+ pH 7.4; KD from the steady-state affinity model
T1 construct: blood coagulation factor VIII, recombinant drug product Advate; also called FVIII; blood coagulation factor VIII; source: bought: Advate
T1 sequence (P00451 20-2351): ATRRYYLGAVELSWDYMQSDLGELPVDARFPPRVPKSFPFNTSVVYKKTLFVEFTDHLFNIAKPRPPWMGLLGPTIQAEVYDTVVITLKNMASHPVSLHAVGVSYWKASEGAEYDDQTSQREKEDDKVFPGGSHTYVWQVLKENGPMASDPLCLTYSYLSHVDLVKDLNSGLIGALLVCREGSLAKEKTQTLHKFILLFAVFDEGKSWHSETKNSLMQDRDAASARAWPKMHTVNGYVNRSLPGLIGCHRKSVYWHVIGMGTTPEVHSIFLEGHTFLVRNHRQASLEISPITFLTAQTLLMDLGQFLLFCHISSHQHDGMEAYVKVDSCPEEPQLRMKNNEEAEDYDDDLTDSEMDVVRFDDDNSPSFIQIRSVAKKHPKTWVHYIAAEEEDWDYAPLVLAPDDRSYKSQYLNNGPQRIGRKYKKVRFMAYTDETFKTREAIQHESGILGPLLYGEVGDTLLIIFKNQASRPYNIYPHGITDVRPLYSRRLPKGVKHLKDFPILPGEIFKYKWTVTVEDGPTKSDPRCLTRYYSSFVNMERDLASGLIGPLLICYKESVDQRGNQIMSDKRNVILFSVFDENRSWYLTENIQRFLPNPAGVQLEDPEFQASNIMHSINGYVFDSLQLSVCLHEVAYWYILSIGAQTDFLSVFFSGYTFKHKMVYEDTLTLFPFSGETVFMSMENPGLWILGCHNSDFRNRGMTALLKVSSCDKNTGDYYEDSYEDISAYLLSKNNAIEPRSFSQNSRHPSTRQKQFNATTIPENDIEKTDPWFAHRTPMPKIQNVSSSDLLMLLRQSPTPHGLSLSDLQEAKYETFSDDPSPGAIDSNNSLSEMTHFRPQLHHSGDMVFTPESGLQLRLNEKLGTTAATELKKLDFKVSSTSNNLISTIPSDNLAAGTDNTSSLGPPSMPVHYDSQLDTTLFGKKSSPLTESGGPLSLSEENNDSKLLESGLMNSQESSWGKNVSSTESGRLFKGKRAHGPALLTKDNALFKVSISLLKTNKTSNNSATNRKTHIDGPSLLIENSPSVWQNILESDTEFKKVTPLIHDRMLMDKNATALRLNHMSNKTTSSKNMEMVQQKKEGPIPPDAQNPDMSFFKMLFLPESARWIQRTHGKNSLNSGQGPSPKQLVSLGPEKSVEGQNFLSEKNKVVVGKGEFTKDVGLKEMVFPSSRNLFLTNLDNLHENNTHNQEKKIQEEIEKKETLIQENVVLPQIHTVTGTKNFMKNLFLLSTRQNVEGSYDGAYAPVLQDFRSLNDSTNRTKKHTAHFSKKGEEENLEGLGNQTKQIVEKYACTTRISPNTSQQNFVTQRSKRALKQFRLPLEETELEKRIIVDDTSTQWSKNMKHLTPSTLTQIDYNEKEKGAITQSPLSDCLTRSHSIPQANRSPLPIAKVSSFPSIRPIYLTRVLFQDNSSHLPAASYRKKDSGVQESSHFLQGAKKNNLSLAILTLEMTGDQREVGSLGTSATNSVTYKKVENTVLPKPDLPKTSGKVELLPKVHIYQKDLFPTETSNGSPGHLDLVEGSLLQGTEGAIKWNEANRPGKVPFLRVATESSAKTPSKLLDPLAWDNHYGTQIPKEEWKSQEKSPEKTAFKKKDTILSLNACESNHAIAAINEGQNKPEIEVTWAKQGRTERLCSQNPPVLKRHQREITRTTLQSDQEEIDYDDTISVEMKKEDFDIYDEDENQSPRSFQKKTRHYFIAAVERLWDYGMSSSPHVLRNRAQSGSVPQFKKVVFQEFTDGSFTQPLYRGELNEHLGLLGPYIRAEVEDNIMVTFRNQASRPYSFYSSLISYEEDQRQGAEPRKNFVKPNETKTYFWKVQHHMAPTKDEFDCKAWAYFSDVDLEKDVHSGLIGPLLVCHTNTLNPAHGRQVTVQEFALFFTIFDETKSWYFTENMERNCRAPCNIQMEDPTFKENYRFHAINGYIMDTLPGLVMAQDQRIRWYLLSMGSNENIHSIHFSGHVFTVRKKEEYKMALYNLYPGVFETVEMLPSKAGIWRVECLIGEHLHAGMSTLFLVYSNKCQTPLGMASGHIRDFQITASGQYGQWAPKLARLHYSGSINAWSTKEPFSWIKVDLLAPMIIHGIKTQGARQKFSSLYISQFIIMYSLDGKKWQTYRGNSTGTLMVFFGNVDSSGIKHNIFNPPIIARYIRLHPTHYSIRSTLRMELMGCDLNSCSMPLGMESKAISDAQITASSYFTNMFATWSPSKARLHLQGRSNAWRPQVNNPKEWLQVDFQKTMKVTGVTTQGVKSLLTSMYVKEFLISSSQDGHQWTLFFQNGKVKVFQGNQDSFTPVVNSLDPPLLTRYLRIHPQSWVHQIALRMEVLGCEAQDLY

[4] = target: T1, recombinant Factor VIII (Advate); assay: SPR; Biacore T200; receptor fragment expressed WITHOUT RAP (RAP−), monomer, amine-coupled to CM5 at ~250 RU; RAP (0.08–20 nM), FVIII (0.8–200 nM) or ApoE3 (0.78–200 nM) in flow, 30 ul/min, contact 180 s; HBS-P Ca2+ pH 7.4 (10 mM HEPES, 150 mM NaCl, 5 mM CaCl2, 0.005% Tween-20); KD from the steady-state affinity model
[5] = target: T1, recombinant Factor VIII (Advate); assay: SPR; Biacore T200; receptor fragment COEXPRESSED with RAP (RAP+; for the LRP1 clusters RAP without HTEL; RAP washed off during purification), monomer, amine-coupled to CM5 at ~250 RU; RAP (0.08–20 nM), FVIII (0.8–200 nM) or ApoE3 (0.78–200 nM) in flow, 30 ul/min, contact 180 s; HBS-P Ca2+ pH 7.4; KD from the steady-state affinity model
[6] = target: T1, recombinant Factor VIII (Advate); assay: SPR; Biacore T200; commercial LRP1 cluster Fc chimeras (R&D) amine-coupled to CM5 at ~250 RU; RAP (0.08–20 nM) or FVIII (0.8–200 nM) in flow; HBS-P Ca2+ pH 7.4; KD from the steady-state affinity model
[7] = target: T2, LRP1 cluster III, recombinant, secreted from Sf9 cells (human, UniProt Q07954 2522-2940); assay: SPR; Biacore T200; receptor fragment COEXPRESSED with RAP (RAP+; for the LRP1 clusters RAP without HTEL; RAP washed off during purification), monomer, amine-coupled to CM5 at ~250 RU; RAP (0.08–20 nM), FVIII (0.8–200 nM) or ApoE3 (0.78–200 nM) in flow, 30 ul/min, contact 180 s; HBS-P Ca2+ pH 7.4; KD from the steady-state affinity model
T2 construct: also called cluster III (RAP+); cluster III (RAP−)
T2 sequence (Q07954 2522-2940): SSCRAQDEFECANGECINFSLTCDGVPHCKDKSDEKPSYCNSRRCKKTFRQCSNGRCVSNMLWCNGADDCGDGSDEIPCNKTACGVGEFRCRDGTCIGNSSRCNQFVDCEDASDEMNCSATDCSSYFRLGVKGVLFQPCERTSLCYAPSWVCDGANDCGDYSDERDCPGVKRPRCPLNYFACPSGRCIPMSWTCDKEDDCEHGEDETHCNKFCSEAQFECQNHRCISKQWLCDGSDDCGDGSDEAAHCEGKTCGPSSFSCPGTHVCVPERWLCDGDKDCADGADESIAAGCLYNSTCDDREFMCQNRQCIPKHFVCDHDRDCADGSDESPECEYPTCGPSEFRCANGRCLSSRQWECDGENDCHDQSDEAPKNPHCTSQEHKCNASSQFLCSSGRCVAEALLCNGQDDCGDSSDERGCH

| Binder | Kd [1] | Kd [2] | other results |
| --- | --- | --- | --- |
| LRP1 CR.6–8 triplet expressed without RAP (RAP−) (domain or fragment, human LRP1 complement-type repeats 6–8 (cluster II); also called LRP1 CR.6–8 (RAP−); source: Sf9, baculovirus (pFastBac-Dual), expressed without RAP; purified (HisTrap Excel, Superdex 75, monomer peak)) not shown | 2.9 nM | – | – |
| LRP1 CR.7–8 doublet (coexpression study) (domain or fragment, human LRP1 complement-type repeats 7–8 (cluster II); also called LRP1 CR.7–8 (RAP+); LRP1 CR.7–8 (RAP−); source: Sf9, baculovirus (pFastBac-Dual), expressed without RAP or coexpressed with RAP; purified (HisTrap Excel, Superdex 75, monomer peak)) not shown | – | 3.1 nM | – |
| LRP1 CR.7 singlet (domain or fragment, human LRP1 complement-type repeat 7 (cluster II); also called LRP1 CR.7 (RAP+); LRP1 CR.7 (RAP−); source: Sf9, baculovirus (pFastBac-Dual), expressed without RAP or coexpressed with RAP; purified (HisTrap Excel, Superdex 75, monomer peak)) not shown | 43.7 nM | 34.9 nM | – |
| LRP1 CR.6–8 triplet coexpressed with RAP (RAP+) (domain or fragment, human LRP1 complement-type repeats 6–8 (cluster II); also called LRP1 CR; 6–8 (RAP+); source: Sf9, baculovirus (pFastBac-Dual), coexpressed with RAP; purified (HisTrap Excel, Superdex 75, monomer peak)) not shown | – | 2.8 nM | – |
| LRP1 cluster II (CR.3–10), recombinant, secreted from Sf9 cells (domain or fragment, also called LRP1 cluster II (8 CRs); cluster II (RAP−)) PQCQPGEFACANSRCIQERWKCDGDNDCLDNSDEAPALCHQHTCPSDRFKCENNRCIPNRWLCDGDNDCGNSEDESNATCSARTCPPNQFSCASGRCIPISWTCDLDDDCGDRSDESASCAYPTCFPLTQFTCNNGRCININWRCDNDNDCGDNSDEAGCSHSCSSTQFKCNSGRCIPEHWTCDGDNDCGDYSDETHANCTNQATRPPGGCHTDEFQCRLDGLCIPLRWRCDGDTDCMDSSDEKSCEGVTHVCDPSVKFGCKDSARCISKAWVCDGDNDCEDNSDEENCESLACRPPSHPCANNTSVCLPPDKLCDGNDDCGDGSDEGELC | – | – | Kd [3]: 37 nM; Kd [4]: 244 nM and 192 nM; Kd [5]: 25 nM and 42 nM |
| recombinant human LRP-1 cluster II Fc chimera protein (R&D, 2368-L2) (Fc fusion, UniProt Q07954 852-1182, looked up, human LRP1 cluster II of the bought Fc chimera; also called commercial LRP1 cluster II; source: bought: R&D (2368-L2)) PQCQPGEFACANSRCIQERWKCDGDNDCLDNSDEAPALCHQHTCPSDRFKCENNRCIPNRWLCDGDNDCGNSEDESNATCSARTCPPNQFSCASGRCIPISWTCDLDDDCGDRSDESASCAYPTCFPLTQFTCNNGRCININWRCDNDNDCGDNSDEAGCSHSCSSTQFKCNSGRCIPEHWTCDGDNDCGDYSDETHANCTNQATRPPGGCHTDEFQCRLDGLCIPLRWRCDGDTDCMDSSDEKSCEGVTHVCDPSVKFGCKDSARCISKAWVCDGDNDCEDNSDEENCESLACRPPSHPCANNTSVCLPPDKLCDGNDDCGDGSDEGELC | – | – | Kd [6]: 450 nM |
| B1 | – | – | Kd [7]: 2 nM |
| LRP1 CR.6–7 doublet (coexpression study) (domain or fragment, human LRP1 complement-type repeats 6–7 (cluster II); also called LRP1 CR; 6–7 (RAP+); LRP1 CR 6–7 (RAP−); source: Sf9, baculovirus (pFastBac-Dual), expressed without RAP or coexpressed with RAP; purified (HisTrap Excel, Superdex 75, monomer peak)) not shown | 3.9 nM | 3.8 nM | – |
